Assay results from publication PMC5608031.

How the values were obtained:
Format in all cases: biochemical, Homo sapiens
Conditions in all cases: PAPS
[1] = substrate: O=c1cc(-c2ccccc2)oc2cc(O)cc(O)c12; test: purified protein
[2] = substrate: O=c1c(-c2ccc(O)cc2)coc2cc(O)ccc12; test: purified protein
[3] = substrate: CC(C)(c1ccc(O)cc1)c1ccc(O)cc1; test: purified protein
[4] = substrate: O=c1cc(-c2ccc(O)cc2)oc2ccc(O)cc12; test: purified protein
[5] = substrate: O=c1cc(-c2ccc(O)cc2)oc2cc(O)cc(O)c12; test: purified protein
[6] = substrate: O=c1c(-c2ccc(O)cc2)coc2cc(O)cc(O)c12; test: purified protein
[7] = substrate: Oc1cccc2ccccc12; test: radiolabeled sulfonation assay, Km

B1: human cytosolic sulfotransferase 1C4 (hSULT1C4) (Homo sapiens) (protein)
chain: MALHDMEDFTFDGTKRLSVNYVKGILQPTDTCDIWDKIWNFQAKPDDLLISTYPKAGTTWTQEIVELIQNEGDVEKSKRAPTHQRFPFLEMKIPSLGSGLEQAHAMPSPRILKTHLPFHLLPPSLLEKNCKIIYVARNPKDNMVSYYHFQRMNKALPAPGTWEEYFETFLAGKVCWGSWHEHVKGWWEAKDKHRILYLFYEDMKKNPKHEIQKLAEFIGKKLDDKVLDKIVHYTSFDVMKQNPMANYSSIPAEIMDHSISPFMRKGAVGDWKKHFTVAQNERFDEDYKKKMTDTRLTFHFQF
- Km [1]: 0.9 ± 0.4 µM
- Km [2]: 10.5 ± 1.1 µM
- Km [3]: 32.8 ± 3.2 µM
- Km [4]: 10.1 ± 2.1 µM
- Km [5]: 1.7 ± 1.0 µM
- Km [6]: 3.3 ± 0.3 µM
- Km [7]: 1.1 ± 0.2 µM
